# T1: human CD180/MD-1 on HEK293 cells (human, UniProt Q99467 24-661; O95711 21-162)
# T1 construct: whole, on cells; CD180 co-expressed with MD-1 on engineered HEK293 cells; also called HEK293 CD180/MD-1 cells; CD180/MD1 HEK293 cells
# T1 sequence (looked up) 1: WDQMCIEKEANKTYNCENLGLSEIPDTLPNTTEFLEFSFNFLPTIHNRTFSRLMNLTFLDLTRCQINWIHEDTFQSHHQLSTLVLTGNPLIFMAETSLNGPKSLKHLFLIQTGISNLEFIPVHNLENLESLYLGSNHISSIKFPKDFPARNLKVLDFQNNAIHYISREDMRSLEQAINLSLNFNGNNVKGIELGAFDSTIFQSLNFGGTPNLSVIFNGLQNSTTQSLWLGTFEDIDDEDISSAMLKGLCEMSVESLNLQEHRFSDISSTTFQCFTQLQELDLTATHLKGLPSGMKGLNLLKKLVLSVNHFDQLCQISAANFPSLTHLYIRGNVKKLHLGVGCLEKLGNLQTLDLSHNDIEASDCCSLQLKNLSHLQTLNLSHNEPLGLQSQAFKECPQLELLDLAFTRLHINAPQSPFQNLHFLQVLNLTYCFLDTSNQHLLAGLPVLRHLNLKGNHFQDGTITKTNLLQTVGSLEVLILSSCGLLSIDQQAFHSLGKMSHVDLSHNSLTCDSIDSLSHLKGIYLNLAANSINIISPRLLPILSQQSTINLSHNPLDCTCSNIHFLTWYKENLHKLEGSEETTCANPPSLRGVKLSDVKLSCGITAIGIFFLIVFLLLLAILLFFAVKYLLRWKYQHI
# T1 sequence (looked up) 2: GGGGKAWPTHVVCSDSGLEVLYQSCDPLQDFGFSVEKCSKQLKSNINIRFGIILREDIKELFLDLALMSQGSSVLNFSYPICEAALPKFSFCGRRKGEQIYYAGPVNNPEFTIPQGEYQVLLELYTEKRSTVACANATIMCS
# Biological target: T1, human CD180/MD-1 on HEK293 cells
# Assay: flow cytometry (called cell-based ELISA) on HEK293 CD180/MD-1 cells, MFI fitted to a 4-parameter curve
binder,measurement,value
"CHAMPmAb-014 (antibody, V domains shown) VH: EVQLVESGGGLVQPGRSLRLSCTTSGFTFADYAMHWVRQTPGQGLEWVSGISWNGGTMGYADSVKGRFTISRDIAKNSLYLQMNSLRAEDTALYYCAKDIAYSRGYFQHWGQGTLVTVSS VL: not shown",EC50,4 nM

# From patent EP4658690A2 (dated 2025)
